{"source": "patent US20250002610A1", "about": "(Genmab, published 2025)", "key": {"[1]": {"target": "T1, His-tagged recombinant Human FAPα (Acro Biosystems, Cat #FAP-H5244-100ug) (human, UniProt Q12884 26-760)", "T1 construct": "Bought reagent; not shown: His tag", "T1 sequence (looked up)": "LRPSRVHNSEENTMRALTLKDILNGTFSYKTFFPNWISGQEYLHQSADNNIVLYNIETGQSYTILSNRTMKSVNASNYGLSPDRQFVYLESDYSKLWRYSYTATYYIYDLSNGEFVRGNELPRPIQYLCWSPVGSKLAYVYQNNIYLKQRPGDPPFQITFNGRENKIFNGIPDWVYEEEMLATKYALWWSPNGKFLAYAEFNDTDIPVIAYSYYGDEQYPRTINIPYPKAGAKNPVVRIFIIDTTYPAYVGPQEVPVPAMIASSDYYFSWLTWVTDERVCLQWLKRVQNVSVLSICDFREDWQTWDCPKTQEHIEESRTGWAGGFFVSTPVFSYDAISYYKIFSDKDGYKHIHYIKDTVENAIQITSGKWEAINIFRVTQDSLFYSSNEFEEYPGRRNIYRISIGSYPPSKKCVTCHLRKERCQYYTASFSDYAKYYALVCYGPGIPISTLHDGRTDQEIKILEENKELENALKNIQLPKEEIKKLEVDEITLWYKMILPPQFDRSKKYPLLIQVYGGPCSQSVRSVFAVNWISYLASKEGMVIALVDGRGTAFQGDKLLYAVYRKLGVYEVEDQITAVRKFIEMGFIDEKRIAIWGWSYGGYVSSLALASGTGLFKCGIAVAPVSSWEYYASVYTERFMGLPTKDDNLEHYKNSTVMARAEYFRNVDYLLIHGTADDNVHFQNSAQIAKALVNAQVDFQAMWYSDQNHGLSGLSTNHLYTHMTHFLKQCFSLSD", "experiment": "BLI, antigen immobilized on AR2G sensors", "experimental": "(§1) Experiments were carried out while shaking at 1,000 RPM at 30° C. Amine Reactive 2nd Generation (AR2G) biosensors (Sartorius, Cat #18-5092) were activated by reaction with 20 mM EDC (N-(3-Dimethylaminopropyl)-N′-ethylcarbodiimide hydrochloride) (Sigma-Aldrich, Cat #03449) and 10 mM s-NHS (N-hydroxysulfosuccinimide sodium salt) (Sigma-Aldrich, Cat #56485) for 300 s. The activated AR2G sensors were loaded with 2.5 μg/mL His-tagged recombinant Human FAPα (Acro Biosystems, Cat #FAP-H5244-100ug) in 10 mM Sodium Acetate pH 5.0 (Sartorius, Cat #18-1069) or 2.5 μg/mL His-tagged recombinant Cynomolgus FAPα (Acro Biosystems, Cat #FAP-C52H3-100ug) in 10 mM Sodium Acetate pH 5.0 for 600 s and quenched with 1 M ethanolamine pH 8.5 (Sartorius Cat #18-1071) for 300 s. After a baseline measurement in Sample Diluent (1000 s; Sartorius, Cat #18-1104), the association (100 s) and dissociation (4,000 s) of functionally monovalent antibody was determined using a concentration range of 0.78-800 nM with two-fold dilution steps in Sample Diluent. The molecular mass of the antibodies used for the calculations was calculated from the sequences.\n(§2) The Y-axis was aligned to the last 10 s of the baseline; Interstep Correction alignment to dissociation and Savitzky-Golay filtering were applied. Data traces with a response <0.05 nm were excluded from analysis. […]"}, "[2]": {"target": "T2, His-tagged recombinant Cynomolgus FAPα (Acro Biosystems, Cat #FAP-C52H3-100ug) (cynomolgus monkey, UniProt A0A2K5VGF4 26-760)", "T2 construct": "Bought reagent; also called recombinant cynomolgus monkey FAPα; not shown: His tag of the vendor's construct (Acro Biosystems FAP-C52H3)", "T2 sequence": "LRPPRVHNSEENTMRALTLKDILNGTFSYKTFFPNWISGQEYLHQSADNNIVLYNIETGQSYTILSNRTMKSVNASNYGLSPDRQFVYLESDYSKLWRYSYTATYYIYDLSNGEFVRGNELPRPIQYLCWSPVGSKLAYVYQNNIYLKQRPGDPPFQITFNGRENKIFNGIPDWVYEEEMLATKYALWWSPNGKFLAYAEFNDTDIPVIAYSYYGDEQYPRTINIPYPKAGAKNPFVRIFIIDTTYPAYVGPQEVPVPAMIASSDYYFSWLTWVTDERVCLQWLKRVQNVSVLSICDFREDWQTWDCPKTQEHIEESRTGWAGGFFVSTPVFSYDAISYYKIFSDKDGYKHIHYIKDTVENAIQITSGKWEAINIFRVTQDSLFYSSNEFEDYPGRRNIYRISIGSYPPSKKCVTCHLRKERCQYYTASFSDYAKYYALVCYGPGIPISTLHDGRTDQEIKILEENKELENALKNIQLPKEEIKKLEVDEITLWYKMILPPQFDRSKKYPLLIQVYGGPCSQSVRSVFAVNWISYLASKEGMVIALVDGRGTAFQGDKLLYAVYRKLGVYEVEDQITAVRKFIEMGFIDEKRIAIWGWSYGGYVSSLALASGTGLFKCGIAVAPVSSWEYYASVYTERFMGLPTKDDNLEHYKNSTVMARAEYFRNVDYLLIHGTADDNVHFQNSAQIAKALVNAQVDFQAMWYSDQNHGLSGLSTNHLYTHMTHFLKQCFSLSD", "experiment": "BLI, antigen immobilized on AR2G sensors", "experimental": "as §1, §2"}}, "data": [{"binder": "BisG1-b12-FERL/DR4-FERR (bispecific antibody, human IgG1, kappa, lambda, Fab-arm exchange of IgG1-b12-FERL and IgG1-DR4-FERR; also called bsIgG1-ctrl-FERLxDR4-FERR) heavy 1: QVQLVQSGAEVKKPGASVKVSCQASGYRFSNFVIHWVRQAPGQRFEWMGWINPYNGNKEFSAKFQDRVTFTADTSANTAYMELRSLRSADTAVYYCARVGPYSWDDSPQDNYYMDVWGKGTTVIVSSASTKGPSVFPLAPSSKSTSGGTAALGCLVKDYFPEPVTVSWNSGALTSGVHTFPAVLQSSGLYSLSSVVTVPSSSLGTQTYICNVNHKPSNTKVDKRVEPKSCDKTHTCPPCPAPEFERGPSVFLFPPKPKDTLMISRTPEVTCVVVDVSHEDPEVKFNWYVDGVEVHNAKTKPREEQYNSTYRVVSVLTVLHQDWLNGKEYKCKVSNKALPAPIEKTISKAKGQPREPQVYTLPPSREEMTKNQVSLTCLVKGFYPSDIAVEWESNGQPENNYKTTPPVLDSDGSFLLYSKLTVDKSRWQQGNVFSCSVMHEALHNHYTQKSLSLSPG light 1: EIVLTQSPGTLSLSPGERATFSCRSSHSIRSRRVAWYQHKPGQAPRLVIHGVSNRASGISDRFSGSGSGTDFTLTITRVEPEDFALYYCQVYGASSYTFGQGTKLERKRTVAAPSVFIFPPSDEQLKSGTASVVCLLNNFYPREAKVQWKVDNALQSGNSQESVTEQDSKDSTYSLSSTLTLSKADYEKHKVYACEVTHQGLSSPVTKSFNRGEC heavy 2: QVQLQESGPGLVKPSGTLSLTCAVSGGSISSYSWWSWIRQPPGKGLEWIGELYHSGSTNYNPSLKSRVTISVDKSKNQFSLKLRSVTAADTAVYYCVRGVATIDYWGQGTLVTVSSASTKGPSVFPLAPSSKSTSGGTAALGCLVKDYFPEPVTVSWNSGALTSGVHTFPAVLQSSGLYSLSSVVTVPSSSLGTQTYICNVNHKPSNTKVDKRVEPKSCDKTHTCPPCPAPEFERGPSVFLFPPKPKDTLMISRTPEVTCVVVDVSHEDPEVKFNWYVDGVEVHNAKTKPREEQYNSTYRVVSVLTVLHQDWLNGKEYKCKVSNKALPAPIEKTISKAKGQPREPQVYTLPPSREEMTKNQVSLTCLVKGFYPSDIAVEWESNGQPENNYKTTPPVLDSDGSFFLYSRLTVDKSRWQQGNVFSCSVMHEALHNHYTQKSLSLSPG light 2: QSALTQPPSASGSPGQSVTISCTGTSSDVGGYNFVSWYQQDPGKAPKLLIYEVTKRPSGVPDRFSGSKSGNTASLTVSGLQAEDEADYYCSSYAGSNNVMFGGGTKLTVLGQPKAAPSVTLFPPSSEELQANKATLVCLISDFYPGAVTVAWKADSSPVKAGVETTTPSKQSNNKYAASSYLSLTPEQWKSHRSYSCQVTHEGSTVEKTVAPTECS", "values": [{"measurement": "binding result", "setting": "[1]", "value": "no binding (tested: 800 nM)"}, {"measurement": "binding result", "setting": "[2]", "value": "no binding (tested: 800 nM)"}]}]}
